Reference: the RNAGym collection of RNA variant scans (doi:10.7554/elife.80360)

B1: CPEB3 Ribozyme (parent)
chain: GGGGGCCACAGCAGAAGCGUUCACGUCGCGGCCCCUGUCAGAUUCUGGUGAAUCUGCGAAUUCUGCUGU

Variants of: B1
Test: self-cleavage, relative activity (ratio to wild type); higher = more cleavage; co-transcriptional

**Q.** With GGGGGCCACAGCAGAAGCGUUCACGUCUCGGCCACUGUCAGAUUCUGGUGAAUCUGCGAAUUCUGCUGU [G28U C34A] as the variant, how does the self-cleavage read?
**A.** Its self-cleavage is 0.181.

**Q.** With GGGGGCCACAGCAGAAGCGUUCACGUCUCGGCCCCUGUCAGAUUCUGGUCAAUCUGCGAAUUCUGCUGU [G28U G50C] as the variant, how does the self-cleavage read?
**A.** The self-cleavage was 0.183.

**Q.** Which self-cleavage does the source give for GGGGGCCACAGCAGAAGCGUUCACGUCUCGGCCCCUGUCAGAUUCUGGUAAAUCUGCGAAUUCUGCUGU [G28U G50A] here?
**A.** The self-cleavage was 0.237.

**Q.** With GGGGGCCACAGCAGAAGCGUUCACGUCGAGGCCCCUGUCAGGUUCUGGUGAAUCUGCGAAUUCUGCUGU [C29A A42G] as the variant, how does the self-cleavage read?
**A.** Its self-cleavage is 0.533.

**Q.** Which self-cleavage does the source give for GGGGGCCACAGCAGAAGCGUUCACGUCGAGGCCCCUGUCAGUUUCUGGUGAAUCUGCGAAUUCUGCUGU [C29A A42U] here?
**A.** Its self-cleavage is 0.517.

**Q.** With GGGGGCCACAGCAGAAGCGUUCACGUCGAGGCCCCUGUCAGCUUCUGGUGAAUCUGCGAAUUCUGCUGU [C29A A42C] as the variant, how does the self-cleavage read?
**A.** Its self-cleavage is 0.409.

**Q.** For GGGGGCCACAGCAGAAGCGUUCACGUCUCGGCCCCUGUCAGAUUCUGGUGAAUCUGCGAAUUCAGCUGU [G28U U64A], which self-cleavage is on record?
**A.** The self-cleavage was 0.157.

**Q.** For GGGGGCCACAGCAGAAGCGUUCACGUCUCGGCCCCUGUCAGAUUCUGGUGAAUCUGCGAAUUCGGCUGU [G28U U64G], which self-cleavage is on record?
**A.** Its self-cleavage is 0.147.

**Q.** With GGGGGCCACAGCAGAAGCGUUCACGUCUCGGACCCUGUCAGAUUCUGGUGAAUCUGCGAAUUCUGCUGU [G28U C32A] as the variant, how does the self-cleavage read?
**A.** Its self-cleavage is 0.236.

**Q.** For GGGGGCCACAGCAGAAGCGUUCACGUCUCGGCCCCUGUCAGAUUAUGGUGAAUCUGCGAAUUCUGCUGU [G28U C45A], which self-cleavage is on record?
**A.** Its self-cleavage is 0.189.

**Q.** With GGGGGCCACAGCAGAAGCGUUCACGUCUCGGCCCCUGUCAGAUUUUGGUGAAUCUGCGAAUUCUGCUGU [G28U C45U] as the variant, how does the self-cleavage read?
**A.** Its self-cleavage is 0.168.

**Q.** For GGGGGCCACAGCAGAAGCGUUCACGUCUCGGCCCCUGUCAGAUUCUGGUGAAUCUGCCAAUUCUGCUGU [G28U G58C], which self-cleavage is on record?
**A.** Its self-cleavage is 0.177.

**Q.** Which self-cleavage does the source give for GGGGGCCACAGCAGAAGCGUUCACGUCUCGGCCCCUGUCAGAUUCUGGUGAAUCUGCAAAUUCUGCUGU [G28U G58A] here?
**A.** The self-cleavage was 0.185.

**Q.** With GGGGGCCACAGCAGAAGCGUUCACGUCGAGGCCCCUGUCCGAUUCUGGUGAAUCUGCGAAUUCUGCUGU [C29A A40C] as the variant, how does the self-cleavage read?
**A.** Its self-cleavage is 0.214.

**Q.** For GGGGGCCACAGCAGAAGCGUUCACGUCGAGGCCCCUGUCUGAUUCUGGUGAAUCUGCGAAUUCUGCUGU [C29A A40U], which self-cleavage is on record?
**A.** The self-cleavage was 0.296.

**Q.** For GGGGGCCACAGCAGAAGCGUUCACGUCGAGGCCCCUGUCGGAUUCUGGUGAAUCUGCGAAUUCUGCUGU [C29A A40G], which self-cleavage is on record?
**A.** Its self-cleavage is 0.607.

**Q.** With GGGGGCCACAGCAGAAGCGUUCACGUCUCGGCCCCUGUCAGAUUCUGGUGAAUCUGCGACUUCUGCUGU [G28U A60C] as the variant, how does the self-cleavage read?
**A.** The self-cleavage was 0.226.

**Q.** Which self-cleavage does the source give for GGGGGCCACAGCAGAAGCGUUCACGUCUCGGCCCCUGUCAGAUUCUGGUGAAUCUGCGAGUUCUGCUGU [G28U A60G] here?
**A.** The self-cleavage was 0.214.

**Q.** With GGGGGCCACAGCAGAAGCGUUCACGUCUCGGCACCUGUCAGAUUCUGGUGAAUCUGCGAAUUCUGCUGU [G28U C33A] as the variant, how does the self-cleavage read?
**A.** Its self-cleavage is 0.21.

**Q.** For GGGGGCCACAGCAGAAGCGUUCACGUCUCGGCGCCUGUCAGAUUCUGGUGAAUCUGCGAAUUCUGCUGU [G28U C33G], which self-cleavage is on record?
**A.** The self-cleavage was 0.196.

**Q.** Which self-cleavage does the source give for GGGGGCCACAGCAGAAGCGUUCACGUCUCGGCCCGUGUCAGAUUCUGGUGAAUCUGCGAAUUCUGCUGU [G28U C35G] here?
**A.** The self-cleavage was 0.14.

**Q.** Which self-cleavage does the source give for GGGGGCCACAGCAGAAGCGUUCACGUCUCGGCCCAUGUCAGAUUCUGGUGAAUCUGCGAAUUCUGCUGU [G28U C35A] here?
**A.** The self-cleavage was 0.172.

**Q.** For GGGGGCCACAGCAGAAGCGUUCACGUCUCGGCCCCUGUCAGAUUCUGGUGAAUCUGUGAAUUCUGCUGU [G28U C57U], which self-cleavage is on record?
**A.** The self-cleavage was 0.213.

**Q.** Which self-cleavage does the source give for GGGGGCCACAGCAGAAGCGUUCACGUCUCGGCCCCUGACAGAUUCUGGUGAAUCUGCGAAUUCUGCUGU [G28U U38A] here?
**A.** The self-cleavage was 0.164.

**Q.** With GGGGGCCACAGCAGAAGCGUUCACGUCUCGGCCCCUGCCAGAUUCUGGUGAAUCUGCGAAUUCUGCUGU [G28U U38C] as the variant, how does the self-cleavage read?
**A.** The self-cleavage was 0.136.

**Q.** For GGGGGCCACAGCAGAAGCGUUCACGUCUCGGCCCCUGGCAGAUUCUGGUGAAUCUGCGAAUUCUGCUGU [G28U U38G], which self-cleavage is on record?
**A.** Its self-cleavage is 0.161.

**Q.** With GGGGGCCACAGCAGAAGCGUUCACGUCUCCGCCCCUGUCAGAUUCUGGUGAAUCUGCGAAUUCUGCUGU [G28U G30C] as the variant, how does the self-cleavage read?
**A.** The self-cleavage was 0.166.

**Q.** For GGGGGCCACAGCAGAAGCGUUCACGUCUCAGCCCCUGUCAGAUUCUGGUGAAUCUGCGAAUUCUGCUGU [G28U G30A], which self-cleavage is on record?
**A.** The self-cleavage was 0.14.

**Q.** For GGGGGCCACAGCAGAAGCGUUCACGUCUCUGCCCCUGUCAGAUUCUGGUGAAUCUGCGAAUUCUGCUGU [G28U G30U], which self-cleavage is on record?
**A.** The self-cleavage was 0.183.

**Q.** For GGGGGCCACAGCAGAAGCGUUCACGUCUCGGCCCCUGUCAGAUUCUGGUGAAUCUGCGAAUGCUGCUGU [G28U U62G], which self-cleavage is on record?
**A.** The self-cleavage was 0.189.

**Q.** Which self-cleavage does the source give for GGGGGCCACAGCAGAAGCGUUCACGUCUCGGCCCCUGUCAGAUUCUGGUGAAUCUGCGAAUACUGCUGU [G28U U62A] here?
**A.** The self-cleavage was 0.216.

**Q.** With GGGGGCCACAGCAGAAGCGUUCACGUCUCGGCCCCUUUCAGAUUCUGGUGAAUCUGCGAAUUCUGCUGU [G28U G37U] as the variant, how does the self-cleavage read?
**A.** The self-cleavage was 0.166.

**Q.** For GGGGGCCACAGCAGAAGCGUUCACGUCUCGGCCCCUCUCAGAUUCUGGUGAAUCUGCGAAUUCUGCUGU [G28U G37C], which self-cleavage is on record?
**A.** Its self-cleavage is 0.172.

**Q.** Which self-cleavage does the source give for GGGGGCCACAGCAGAAGCGUUCACGUCUCGGCCCCUGUCAGAUUCCGGUGAAUCUGCGAAUUCUGCUGU [G28U U46C] here?
**A.** The self-cleavage was 0.19.

**Q.** With GGGGGCCACAGCAGAAGCGUUCACGUCUCGGCCCCUGUCAGAUUCAGGUGAAUCUGCGAAUUCUGCUGU [G28U U46A] as the variant, how does the self-cleavage read?
**A.** The self-cleavage was 0.163.

**Q.** Which self-cleavage does the source give for GGGGGCCACAGCAGAAGCGUUCACGUCUCGGCCCCUGUCAGAUUCGGGUGAAUCUGCGAAUUCUGCUGU [G28U U46G] here?
**A.** The self-cleavage was 0.187.

**Q.** With GGGGGCCACAGCAGAAGCGUUCACGUCUCGGCCCCUGUCAGAUUCUGGUGAAUCUGCGGAUUCUGCUGU [G28U A59G] as the variant, how does the self-cleavage read?
**A.** Its self-cleavage is 0.23.

**Q.** Which self-cleavage does the source give for GGGGGCCACAGCAGAAGCGUUCACGUCUCGGCCCCUGUCAGAUUCUGGUGAAUCUGCGUAUUCUGCUGU [G28U A59U] here?
**A.** The self-cleavage was 0.16.

**Q.** For GGGGGCCACAGCAGAAGCGUUCACGUCUCGGCCCCUGUCAGAUUCUGGUGAAUCUGCGAAUUCUGAUGU [G28U C66A], which self-cleavage is on record?
**A.** Its self-cleavage is 0.153.
